# Molecular target: T1, human GLP-1 receptor (human, UniProt P43220)
# Assay: cell-based or functional assay
row,Molecule,GLP-1 receptor activation relative to Val^8-GLP-1(7-37)OH [relative potency]
1,HVEGTFTSDYSSYLEGQAAKEFIAWLVKGRG [Val^8-Tyr^16-GLP-1(7-37)OH],2.5
2,HVEGTYTSDVSSYLEGQAAKEFIAWLVKGRG [Val^8-Tyr^12-GLP-1(7-37)OH],1.7
3,HVEGTFTSDVSSFLEEQAAKEFIAWLVKGRG [Val^8-Phe^19-Glu^22-GLP-1(7-37)OH],1.5
4,HVEGTFTSDVSSYFEEQAAKEFIAWLVKGRG [Val^8-Phe^20-Glu^22-GLP-1(7-37)OH],2.7
5,HVEGTFTSDVSSYLEEQALKEFIAWLVKGRG [Val^8-Glu^22-Leu^25-GLP-1(7-37)OH],2.8
6,HVEGTFTSDVSSYLEEQAIKEFIAWLVKGRG [Val^8-Glu^22-Ile^25-GLP-1(7-37)OH],3.1
7,HVEGTFTSDVSSYLEEQAAKIFIAWLVKGRG [Val^8-Glu^22-Ile^27-GLP-1(7-37)OH],2
8,HVDGIFTSDYSSYLEEQAAKEFIAWLVKGRG [Val^8-Asp^9-Ile^11-Tyr^16-Glu^22-GLP-1(7-37)OH],4.3
9,HVEGTFTSDYSSWLEEQAAKEFIAWLVKGRG [Val^8-Tyr^16-Trp^19-Glu^22-GLP-1(7-37)OH],3.5
10,HVEGTFTSDWSSYLEEQAVKEFIAWLIKGRG [Val^8-Trp^16-Glu^22-Val^25-Ile^33-GLP-1(7-37)OH],5
11,HVEGTFTSDWSSYLEEQAAKEFIAWLIKGRG [Val^8-Trp^16-Glu^22-Ile^33-GLP-1(7-37)OH],4.1

# Molecular target: T1, human GLP-1 receptor
# Assay: not given
row,Molecule,GLP-1 receptor activation relative to Val^8-GLP-1(7-37)OH (relative potency)
1,Val^8-Val^16-GLP-1(7-37)OH (peptide),1.1
2,Val^8-Cys^16-Lys^26-Arg^34-GLP-1(7-37)OH (peptide),1.9
3,Val^8-Cys^16-Lys^26-GLP-1(7-37)OH (peptide),4.2

# Molecular target: T1, human GLP-1 receptor
# Assay: cell-based or functional assay
# Remark: another data set of the same source
row,Molecule,GLP-1 Receptor Activation (relative to GLP-1(7-37)OH) [relative potency]
1,HVEGTFTSDYSSYLEGQAAKEFIAWLVKGRG [Val^8-Tyr^16-GLP-1(7-37)OH],1.18
2,HVEGTYTSDVSSYLEGQAAKEFIAWLVKGRG [Val^8-Tyr^12-GLP-1(7-37)OH],0.81

# Source: patent US20040235710A1, “Pre-mixes of glp-1 and basal insulin” (published 2004)
